Data from PMC5384775.
Numbering of substitutions follows the chain as printed. In names and notes the source's numbering stands.

B1: His-tagged WT vinculin, Q64727 D974A; K975A; R976A; R978A (protein)
chain: MPVFHTRTIESILEPVAQQISHLVIMHEEGEVDGKAIPDLTAPVAAVQAAVSNLVRVGKETVQTTEDQILKRDMPPAFIKVENACTKLVQAAQMLQSDPYSVPARDYLIDGSRGILSGTSDLLLTFDEAEVRKIIRVCKGILEYLTVAEVVETMEDLVTYTKNLGPGMTKMAKMIDERQQELTHQEHRVMLVNSMNTVKELLPVLISAMKIFVTTKNSKNQGIEEALKNRNFTVEKMSAEINEIIRVLQLTSWDEDAWASKDTEAMKRALASIDSKLNQAKGWLRDPNASPGDAGEQAIRQILDEAGKVGELCAGKERREILGTCKMLGQMTDQVADLRARGQGASPVAMQKAQQVSQGLDVLTAKVENAARKLEAMTNSKQSIAKKIDAAQNWLADPNGGPEGEEQIRGALAEARKIAELCDDPKERDDILRSLGEIAALTSKLGDLRRQGKGDSPEARALAKQVATALQNLQTKTNRAVANSRPAKAAVHLEGKIEQAQRWIDNPTVDDRGVGQAAIRGLVAEGHRLANVMMGPYRQDLLAKCDRVDQLTAQLADLAARGEGESPQARALASQLQDSLKDLKAQMQEAMTQEVSDVFSDTTTPIKLLAVAATAPPDAPNREEVFDERAANFENHSGRLGATAEKAAAVGTANKSTVEGIQASVKTARELTPQVISAARILLRNPGNQAAYEHFETMKNQWIDNVEKMTGLVDEAIDTKSLLDASEEAIKKDLDKCKVAMANIQPQMLVAGATSIARRANRILLVAKREVENSEDPKFREAVKAASDELSKTISPMVMDAKAVAGNISDPGLQKSFLDSGYRILGAVAKVREAFQPQEPDFPPPPPDLEQLRLTDELAPPKPPLPEGEVPPPRPPPPEEKDEEFPEQKAGEVINQPMMMAARQLHDEARKWSSKGNDIIAAAKRMALLMAEMSRLVRGGSGTKRALIQCAKDIAKASDEVTRLAKEVAKQCTAAAIATNLLQVCERIPTISTQLKILSTVKATMLGRTNISDEESEQATEMLVHNAQNLMQSVKETVREAEAASIKIRTDAGFTLRWVRKTPWYQ
B2: His-tagged WT vinculin, Q64727 I997A; V1001A (protein)
chain: B1 chain with A974D, A975K, A976R, A978R, I997A, V1001A

What was measured:
[1] = molecular target: filamentous actin (F-actin) (UniProt P68135); assay: co-sedimentation; His-tagged vinculin or mutants (2 uM; WT also at 0.25 uM with 10 or 25 uM peptide) with 4 uM pre-polymerized F-actin and 25 uM VBS3(talin) peptide as activator; 50 mM Tris-HCl pH 8.0, 0.2 mM MgCl2, 0.2 mM ATP, 1 mM DTT; 1 h at 24 C; 150,000 x g 1 h at 4 C; SDS-PAGE, CBB staining, ratio of precipitated to total vinculin by ImageJ
[2] = molecular target: filamentous actin (F-actin) (UniProt P68135); assay: co-sedimentation; His-tagged vinculin or mutants (1 uM) with 4 uM pre-polymerized F-actin and 10 uM GST-VBS(IpaA 610-633) as activator; 50 mM Tris-HCl pH 8.0, 0.2 mM MgCl2, 0.2 mM ATP, 1 mM DTT; 1 h at 24 C; 150,000 x g 1 h at 4 C; SDS-PAGE, CBB staining, ratio of precipitated to total vinculin by ImageJ
[3] = molecular target: filamentous actin (F-actin), P68135; assay: actin co-sedimentation assay; settings: chain shown with the change

Molecule	percent of vinculin coprecipitated with F-actin [2] [%]	other results
His-tagged WT vinculin (from UniProt Q64727 1-1066) (natural protein)	84	percent of vinculin coprecipitated with F-actin [1]: 40%
His-tagged vinculin IA mutant (I997A) (from UniProt Q64727 1-1066) (natural protein)	42	
His-tagged vinculin VA mutant (V1001A) (from UniProt Q64727 1-1066) (natural protein)	53	
B1		response ([3]; 2 μM His-tagged vinculin, 25 μM VBS3(talin), parent: est. 41, read off a plot): 59%
B2		response ([3]; 1 μM His-tagged vinculin, 10 μM GST-VBS(IpaA), parent: est. 84, read off a plot): 43%
